Test results reported in the supplement of paper PMC11502859.

Tested on: HEK293T
Assay: median enrichment of reporter reads in eGFP-reduced (low/intermediate) vs eGFP-high sorted cells (eGFP-extension fusion abundance) (ratio); higher = stronger loss of eGFP-fusion protein abundance (more destabilising extension)
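Note: lentiviral eGFP-IRES-mCherry reporter pool sorted by FACS 96 h post-transduction, gated on mCherry-high cells, Illumina read counts normalized per million, median across four biological replicates.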

| Substance | median enrichment |
| --- | --- |
| QENKNCRK [MRPL13] | 0.366 |
| RGPPLAKACGRRWRPSLGRFQGASGKPDGCWWPFPRGLVSGPAQSLLRGRGWRLGSPACLAPPSERAALLSY [ARL6IP4] | 10.9 |
| QYT [ZMYM5] | 0.736 |
| YHPGL [GORASP1] | 0.424 |
| WWWWWWWW [Trp08] | 4.57 |
| KISVETYTVSSQLLMVLMSLDLDTGLVPSLVSKCLILRVK [VHL] | 5.01 |
| SVWAGLFNMVFAVLPPWGPWSDNIVSLVRLSRCLIRTANGASPTPPRVRPPFHQRVSSQRPPASCPAAQEEKEGLNSIAIFFP [PDGFB] | 7.44 |
| YRLFVHYCFHFVPRVKQTTEKSNQVITYPSAGDFDY [ZBBX] | 10.1 |
| SCVKSFSVFSTFIKTQDNSYWREILQM [ZNF708] | 11.8 |
| GIIIISTCPQFLSQSPSILTCTHSDAD [TCHHL1] | 3.49 |
| CGLGRFS [IMMT] | 0.695 |
| WNLLSMILPATPLPSLAQSRGAMLSAHPSCTLAPCSRDVSTHSLC [MYPOP] | 7.81 |
| RQGRLRGQAGGQQLQEGSDNSPPAWAHLLLLLLLGSAPQTRLWPPSQCPVTSPE [CRACR2B] | 9.74 |
| SEVRACAMCETGKLGAQFEFFLFFFFLSTKNTLMVNTGQNQERMCSFQGLGQNL [GAB3] | 7.14 |
| YPV [HNRNPUL1] | 0.542 |
| RPQMAGTCSSDERVLRRTPPSSVLEAGRLGSRRGQRHLLSVLGCKQLCVSGDTSHHVPGN [AIRE] | 7.82 |
| QTGFLSSLKRLLCLRKSICCVSLASGSRTDLQLPNWILLPRSCSEVSFYHSAL [HLA-DPB1] | 7.45 |
| QEATDRVSLVIRSQRFTI [ITM2A] | 15.6 |
| CPCSRVSQGHFAATAAFPEIKQPGAVASELRGAGGRARTLGLGHGALSLKATFLTYSLYITQRP [CTNS] | 3.76 |
| WEPTACRCRRMRGCRDARRRPRSQPTTPPPA [FOXL2] | 17.5 |
| KITF [SNCAIP] | 0.77 |
| YDGGQIKVLAFRCL [KCNMB3] | 9.29 |

| Substance | median enrichment |
| --- | --- |
| WALHPARS [IQCD] | 0.961 |
| SVGEWAGMCILLPNSSIQDCAHIRSTRTSSHQHKNINRNAALSTV [WFDC10A] | 5.12 |
| SGLSDCPCPAHHPVTATPKPTPTGAHCPTPAPGRHPAGHFTCCH [FERMT3] | 1.55 |
| LGGVWGHPS [ZG16B] | 2.14 |
| SGLWPGTRSHLAGRWLLPQFSLENPQLSTHPLPQNQFQ [RBM42] | 9.36 |
| EGGALCLCLPV [CTSE] | 7.51 |
| ELLGQRLKPQDPCCPSRSFFLESQGKPFRAAPPSGQKLK [ALG1] | 3.82 |
| PLLNLDFCPNPLPVTRSISLSLLSNGAWSTEASEAIALLAEVKRTLSPHLRLPCVEPASVCPSFHCSQCQTWAAAPRRLRPNQ [SLC18A3] | 5.19 |
| LMLPGIK [CDV3] | 4.97 |
| LIPQPGLPVHLLTLLKSSIVVIL [CD46] | 10.7 |
| QLYVGLSLEYVWSPGLSRLEQQSLLLAYHRD [ZFYVE21] | 9.76 |
| RESLHLEITTGYASGI [ZNF41] | 5.83 |
| QPWQ [ADGRL3] | 0.354 |
| WHLFPPCLPLPLFWGHPFPPWLSPLKVSPPLGAFLEPCVSEWSPHSIVPRVCPQTLHLALLGRN [SNRPA] | 10.5 |
| YSGLPVASSSTTELQTNHPKCRLDGEGKDWGGRVNSEGCPLPIPPGP [PODXL] | 21.5 |
| RRAGGGWWPRRQHTTRLHTCMLSPRGNGLYIAHFTLFRRHFIPALVLLEGLSRQSSSCSASVCDSPPSTPMALSLGDSSSPRK [PRKAB1] | 5.36 |
| LAGWDHPPAPQLHALP [INSYN2B] | 0.774 |
| LAFRLALAPGTRSPRAPGPLPAPAAPSPSPGCVSLPMTLSWGPPARPGTFLPNPQTHDSLPHRLPQRPPTHFILSGHPSDLDP [SCRT2] | 3.18 |
| EDTPSPDSTGNRSSPDSPPRRASPRPCTGSEASVTLPLCSPVP [KDM2A] | 0.106 |
| SVGQATPPSSSCLRRSHSIHWNRSWVSLCSCLSFPRDPTPLWGSGTLHCTGSLHTGRGTCAPTSETCRSPQLTCPTGAQHCTQ [MAP3K11] | 5.17 |
| WGAAYQSLGSHLLRC [C11orf91] | 5.76 |
